According to PMC7312009, “SIRT7 Deacetylates STRAP to Regulate p53 Activity and Stability” (International Journal of Molecular Sciences, 2020):

Biological target: T1, Flag-tagged SIRT7 (UniProt Q9NRC8 1-400)
T1 construct: also called SIRT7 protein purified from 293T cells; source: purified from 293T cells; HEK293T, transfected, in lysate
T1 sequence (looked up): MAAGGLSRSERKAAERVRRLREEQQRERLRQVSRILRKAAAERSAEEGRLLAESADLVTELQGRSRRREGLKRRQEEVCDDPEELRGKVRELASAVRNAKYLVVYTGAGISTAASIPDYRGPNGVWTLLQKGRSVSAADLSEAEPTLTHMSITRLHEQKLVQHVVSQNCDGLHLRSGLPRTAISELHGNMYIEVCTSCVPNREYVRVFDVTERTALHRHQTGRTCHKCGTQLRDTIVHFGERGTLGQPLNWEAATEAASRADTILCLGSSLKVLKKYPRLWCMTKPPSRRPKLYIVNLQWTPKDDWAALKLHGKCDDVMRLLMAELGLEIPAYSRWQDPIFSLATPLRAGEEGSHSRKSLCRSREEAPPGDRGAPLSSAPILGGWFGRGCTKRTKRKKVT
Assay: pull-down; 1 μg GST-STRAP fusion protein incubated with Flag-tagged SIRT7 purified from 293T cells in 100 μL BC100 at 4 °C overnight, then glutathione-sepharose beads 2 h; Western blotting
Details: both partners purified

- binding result: binds
B1: GST-STRAP full length (natural protein, UniProt Q9Y3F4 1-350, looked up)
chain: MAMRQTPLTCSGHTRPVVDLAFSGITPYGYFLISACKDGKPMLRQGDTGDWIGTFLGHKGAVWGATLNKDATKAATAAADFTAKVWDAVSGDELMTLAHKHIVKTVDFTQDSNYLLTGGQDKLLRIYDLNKPEAEPKEISGHTSGIKKALWCSEDKQILSADDKTVRLWDHATMTEVKSLNFNMSVSSMEYIPEGEILVITYGRSIAFHSAVSLDPIKSFEAPATINSASLHPEKEFLVAGGEDFKLYKYDYNSGEELESYKGHFGPIHCVRFSPDGELYASGSEDGTLRLWQTVVGKTYGLWKCVLPEEDSGELAKPKIGFPETTEEELEEIASENSDCIFPSAPDVKA
notes: Serine-threonine kinase receptor-associated protein (STRAP), full length, subcloned into pGEX4T-3; also called GST-STRAP (FL); full-length STRAP (WT); source: purified GST fusion protein (pGEX4T-3)
